Assays:
UBLCP1 = target: T1, UBLCP1 (UniProt Q8WVY7); test: affinity microcolumn + qPCR; conditions: value is average over all 7 other targets; Binding buffer (composition, pH and temperature not in material) with 10 ug/mL yeast tRNA; serial: 4.75 nM N70 library + 50 pM each aptamer/BBS, 1 mL, protein …
T1 sequence: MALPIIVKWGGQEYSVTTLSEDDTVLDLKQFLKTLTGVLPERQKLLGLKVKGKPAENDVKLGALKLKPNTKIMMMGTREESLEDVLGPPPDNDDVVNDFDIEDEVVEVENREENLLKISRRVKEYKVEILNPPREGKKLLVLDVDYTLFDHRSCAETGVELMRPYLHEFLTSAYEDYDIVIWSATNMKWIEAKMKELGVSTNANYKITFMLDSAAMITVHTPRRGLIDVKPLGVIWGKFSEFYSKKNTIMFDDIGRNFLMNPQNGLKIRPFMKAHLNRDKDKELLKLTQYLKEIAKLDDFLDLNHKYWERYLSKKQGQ

GFP = GFP (UniProt P42212); test: affinity microcolumn + qPCR; conditions: GFP 0.6 ug/uL resin; serial; Binding buffer (composition, pH and temperature not in material) with 10 ug/mL yeast tRNA; serial: 4.75 nM N70 library + 50 pM each aptamer/BBS, 1 mL, protein …
NELF-E = target: T2, NELF-E (Drosophila, UniProt P92204 1-280); test: affinity microcolumn + qPCR; NELF-E 0.6 ug/uL resin; serial; Binding buffer (composition, pH and temperature not in material) with 10 ug/mL yeast tRNA; serial: 4.75 nM N70 library + 50 pM each aptamer/BBS, 1 mL, protein 0.6 ug/uL resin; wash 3 mL at 300 uL/min; conditions: protein: recombinant; tags: His6
T2 sequence: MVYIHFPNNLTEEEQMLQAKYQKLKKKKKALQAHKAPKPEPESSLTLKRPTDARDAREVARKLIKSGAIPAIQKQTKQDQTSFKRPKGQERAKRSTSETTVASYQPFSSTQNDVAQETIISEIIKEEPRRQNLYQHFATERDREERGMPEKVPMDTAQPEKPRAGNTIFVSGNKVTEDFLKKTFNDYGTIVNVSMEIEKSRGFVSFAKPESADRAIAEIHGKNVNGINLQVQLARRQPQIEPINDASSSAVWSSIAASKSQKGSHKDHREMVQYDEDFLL

Molecule | binding signal (fold enrichment over N70 library) (UBLCP1) | binding signal (fold enrichment over N70 library) (GFP) | binding signal (NELF-E)
GGGAAUGGAUCCACAUCUACGAAUUCAAUCAAGUCCCCAGACUCAGCAACACUGGACAGCGAUAUGCAGAUAACCAAGACCAAUUCACUCCAGUUCACUGCAGACUUGACGAAGCUU [HSFapt] | 2 | – | –
GGGAAUGGAUCCACAUCUACGAAUUCCCAACGACUGCCGAGCGAGAUUACGCUUGAGCGCCCCACUGAGGAUGCCCACGGGCGAUUGGGGCACGGCUUCACUGCAGACUUGACGAAGCUU [NELFapt] | 1.6 | – | –
AGCUUCUGGACUGCGAUGGGAGCACGAAACGUCGUGGCGCAAUUGGGUGGGGAAAGUCCUUAAAAGAGGGCCACCACAGAAGCU [GFPapt (AP3-1)] | 0.6 | 750 | –
NELFapt (structured_RNA) RNA: GGGAAUGGAUCCACAUCUACGAAUUCCCAACGACUGCCGAGCGAGAUUACGCUUGAGCGCCCCACUGAGGAUGCCCACGGGCGAUUGGGGCACGGCUUCACUGCAGACUUGACGAAGCUU | – | – | 262 fold enrichment over N70 library
